These results are taken from patent US20260152555A1 (HUAHUI HEALTH, published 2026).

What all share (assay): SPR (Biacore T200), multi-cycle; H733-hIgG4 captured on anti-hFc Ab, hCD112R-ECD-mFc variant injected (3.125-100 nM); 1:1 Langmuir [Cont') B]
Background: In SPR one partner is held on a chip, and binding of the other changes the refractive index at the surface.

One test addresses T1, L72A (human, UniProt Q6DKI7).
T1 construct: extracellular domain, amino acids 42-172; alanine-scanning variant; also called hCD112R-ECD-mFc L72A variant
T1 sequence (Fc fusion chain, looked up): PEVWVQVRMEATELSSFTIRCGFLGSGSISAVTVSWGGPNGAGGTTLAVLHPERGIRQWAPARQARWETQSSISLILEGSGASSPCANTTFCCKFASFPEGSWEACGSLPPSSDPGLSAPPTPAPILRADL
The method, then:
(§1) Kinetic analyses of the bindings of WT or mutated hCD112R-ECD-mFc proteins to H733 and hCD112-ECD were performed on a Biacore T200 instrument (Biacore, GE Healthcare). For the single-cycle SPR analysis, anti-mFc Ab (Thermo Fisher) was covalently attached to surfaces of a CM5 sensor chip using an amine coupling kit (GE Healthcare). WT or mutated hCD112R-ECD mFc fusion proteins were captured on the chip and H733-hIgG4 or hCD112-ECD-hFc were then injected. For the multi-cycle SPR analysis, anti-hFc Ab (Thermo Fisher) was covalently attached to surfaces of a CM5 sensor chip using an amine coupling kit (GE Healthcare). H733-hIgG4 or hCD112-ECD-hFc protein was captured on the chip and 2-fold serially diluted WT or mutated hCD112R-ECD-mFc proteins (3.125-100 nM) were then injected. Binding kinetics were evaluated using a 1:1 Langmuir binding model. The association rates (ka), dissociation rates (kd), and affinity constants (KD) were calculated using Biacore T200 evaluation software.

A further test concerns the target T2, E94A (human, UniProt Q6DKI7).
T2 construct: extracellular domain, amino acids 42-172; alanine-scanning variant; also called hCD112R-ECD-mFc E94A variant
T2 sequence (Fc fusion chain, looked up): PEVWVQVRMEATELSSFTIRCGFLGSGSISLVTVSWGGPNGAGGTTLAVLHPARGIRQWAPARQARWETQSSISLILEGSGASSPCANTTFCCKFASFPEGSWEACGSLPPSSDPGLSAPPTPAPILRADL
Here is the method: as §1

In the next test the target is T3, K135A (human, UniProt Q6DKI7).
T3 construct: extracellular domain, amino acids 42-172; alanine-scanning variant; also called hCD112R-ECD-mFc K135A variant
T3 sequence (Fc fusion chain, looked up): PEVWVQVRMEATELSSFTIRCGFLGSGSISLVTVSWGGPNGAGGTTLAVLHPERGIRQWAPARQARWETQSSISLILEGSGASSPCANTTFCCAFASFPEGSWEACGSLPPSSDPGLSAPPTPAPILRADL
The method, then:
as §1

The next test addresses T4, F139A (human, UniProt Q6DKI7).
T4 construct: extracellular domain, amino acids 42-172; alanine-scanning variant; also called hCD112R-ECD-mFc F139A variant
T4 sequence (Fc fusion chain, looked up): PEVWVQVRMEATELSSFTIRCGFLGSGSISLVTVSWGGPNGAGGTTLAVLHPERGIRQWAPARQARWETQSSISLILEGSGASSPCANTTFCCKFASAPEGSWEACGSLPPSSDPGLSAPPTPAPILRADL
The method, then:
as §1

Test [1] deals with T5, hCD112R-ECD-mFc E145A variant (human; mouse, UniProt Q6DKI7 42-172).
T5 construct: range 42-172; also called E145A mutation of hCD112R; not shown: Fc domain of mouse IgG2a
T5 sequence (looked up): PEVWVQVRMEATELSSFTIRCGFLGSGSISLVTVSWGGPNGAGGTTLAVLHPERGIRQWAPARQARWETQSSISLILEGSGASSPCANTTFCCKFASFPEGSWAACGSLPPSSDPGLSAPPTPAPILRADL
The method, then: as §1

For test [2], the target named is T6, hCD112R-ECD-mFc V90A variant (human; mouse, UniProt Q6DKI7 42-172).
T6 construct: range 42-172; also called V90A mutation of hCD112R; not shown: Fc domain of mouse IgG2a
T6 sequence (looked up): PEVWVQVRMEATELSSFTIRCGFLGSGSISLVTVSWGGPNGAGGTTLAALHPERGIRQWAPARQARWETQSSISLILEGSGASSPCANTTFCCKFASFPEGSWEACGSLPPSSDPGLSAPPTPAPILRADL
The method, then: as §1

B1: H733 (humanized Ab composed of 733-VH-humanV2 and 733-VL-human-C91S) (antibody, human IgG4, V domains shown)
VH: QVQLVQSGAEVKKPGASVKVSCKASGYTFTNYLIEWVRQAPGQGLEWMGVINPGHGFTNYAQKFQGRVTMTRDTSTSTVYMELSSLRSEDTAVYYCARGEWDWYFDVWGQGTTVTVSS
VL: DIQLTQSPSFLSASVGDRVTITCKASQNVGTAVAWYQQKPGKAPKLLIYSTSNRYTGVPSRFSGSGSGTEFTLTISSLQPEDFATYYCQQSSSYPFTFGGGTKVEIK
notes: also called H733-hIgG4; H733 mAb (hIgG4 form)
Regarding B1, the dissociation constant (Kd) turned out to be 469 pM with L72A; 533 pM with E94A; 847 pM in the test with K135A; 165 pM with F139A; 1420 pM in test [1]; 2010 pM in test [2]. In addition, the koff with L72A amounted to 0.000394 s⁻¹; with E94A, 0.000573 s⁻¹; with K135A, 0.000412 s⁻¹; in the test with F139A it was 0.000232 s⁻¹; in test [1], 0.000418 s⁻¹; in test [2], 0.000475 s⁻¹. The kon worked out at 840000 M⁻¹ s⁻¹ with L72A; 1.08e+06 M⁻¹ s⁻¹ in the test with E94A; 487000 M⁻¹ s⁻¹ in the test with K135A; 1.4e+06 M⁻¹ s⁻¹ with F139A; 296000 M⁻¹ s⁻¹ in test [1]; 237000 M⁻¹ s⁻¹ in test [2].

As usually defined, the Kd is the concentration at which binding is half-saturated. A lower Kd goes with a tighter complex. Usually koff stands for the first-order rate constant of dissociation. A low value points to a long-lived complex. A word on the kon: it is the second-order rate constant of association.
